According to US11357847B2, “Modified HSV gD protein and vaccine containing same” (KM Biologics Co., Ltd., priority 2017, dated 2022):

Tests used:
gD-HVEM interactions = gD-HVEM interactions (Human herpesvirus 2, UniProt P03172, R52Q); conditions: compared to wild-type gD immune serum; FIG. 34
Procedure: Inhibition of gD-HVEM interactions by modified gD immune serum was also analyzed. Specifically, 100 μL of gD1-305-cys-strep dimer adjusted to a concentration of 5 μg/mL with phosphate buffered saline was immobilized in a 96-well microtiter plate at 4° C. overnight. Subsequently, blocking and washing were performed as in the competitive ELISA method described above, 100 μL of IgG purified from each immune serum was added at any concentration and reacted at room temperature for one hour. Subsequently, 1 μg/mL of HVEM (Recombinant Human HVEM/TNFRSF14 Fc Chimera Protein, R&D SYSTEMS, Inc.) was diluted at any dilution fold with 1% BSA PBS, each added at 100 μL and reacted at room temperature for an additional hour. Each well was washed again with PBS-T, then, HRP-labeled antibody (anti-hFc/HRP/1% BSA PBS) was reacted. Each well was washed with PBS-T, then colored, and after the reaction was stopped with 1N sulfuric acid, absorbance of 450 nm/650 nm was measured.

HVEM = molecular target: T1, HVEM (Homo sapiens, UniProt Q92956); experiment: Reactivity of HVEM with gD variants (competitive ELISA); assay type: binding; conditions: compared to the original gD1-315; FIG. 14
T1 sequence (Q92956 39-202): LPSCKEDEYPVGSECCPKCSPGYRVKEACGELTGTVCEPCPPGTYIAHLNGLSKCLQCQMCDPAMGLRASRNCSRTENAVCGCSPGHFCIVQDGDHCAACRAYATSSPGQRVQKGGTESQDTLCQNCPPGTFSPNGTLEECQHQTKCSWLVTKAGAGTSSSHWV
Procedure: From the above discussion, it can be strongly inferred that each variant takes the structure in which FR1 is bound to the receptor binding region. The reactivity of HVEM with each variant was then measured by competitive ELISA.
HVEM can bind gD for the first time when FR1 binds to the receptor binding region and takes a characteristic hairpin structure. […] FR3-deficient gD1-275v5-55 promoted FR1 binding and further HVEM binding over other gD1-315-based variants in which FR3 was present.

[1] = test system: various anti-gD2 antibodies; experiment: Reactivity of gD variants with anti-gD2 antibodies (competitive ELISA); assay type: binding, human; conditions: for Reactivity with anti-gD2 antibody 1 / Reactivity with anti-gD2 antibody 5 / Reactivity with anti-gD2 antibody 13 / Reactivity with anti-gD2 antibody 72 / Reactivity with anti-gD2 antibody 75 / Reactivity with anti-gD2 antibody 78 / Reactivity with anti-gD2 antibody 82: immobilized gD variant
Text: Each anti-gD2 monoclonal antibody and each gD variant were expressed using an Expi293 expression system.

gD1-315 = gD1-315 (Human herpesvirus 2, UniProt P03172, R52Q); conditions: compared to wild-type gD immune serum; FIG. 33
Sequence of gD1-315 (P03172 26-340 R52Q): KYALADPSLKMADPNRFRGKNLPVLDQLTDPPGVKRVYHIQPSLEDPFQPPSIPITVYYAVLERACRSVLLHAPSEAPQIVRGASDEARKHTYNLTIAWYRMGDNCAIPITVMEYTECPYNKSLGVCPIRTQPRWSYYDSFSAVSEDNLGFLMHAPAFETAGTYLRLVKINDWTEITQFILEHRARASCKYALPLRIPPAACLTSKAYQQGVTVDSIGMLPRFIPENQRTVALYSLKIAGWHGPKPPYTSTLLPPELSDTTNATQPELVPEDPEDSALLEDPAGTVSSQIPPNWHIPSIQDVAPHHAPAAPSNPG
Procedure: IgG was purified from serum and analyzed by competitive methods using SPR (Biacore, Inc.) to make antibody amounts uniform.
The anti-gD2 antibody competition test was performed using Biacore 3000 (GE Healthcare), where, in all experiments, HBS-EP buffer (GE Healthcare) was used, the temperature was set to 25° C., and the flow rate was set to 20 μL/min. CMS senor chip (GE Healthcare) was used as the sensor chip, and the experiment was performed based on the recommended protocol. gD1-315-His was immobilized at about 300 RU on the chip surface, and for chip regeneration, glycine-hydrochloride buffer of 0.1 M and pH 2.0 was used and the chip was washed twice at a flow rate of 30 μL/min for 30 seconds. Procedures for competition and calculation of the competition rate were as follows. 10 μg/mL of each anti-gD2 antibody or buffer was applied to the chip under a condition of binding for 1 minute and dissociation for 2.5 minutes. 20 μg/mL of each immune serum purified by IgG was then applied under a condition of binding for 1 minute and dissociation for 5 minutes. After buffer application, the RU detected when immune serum was applied was set to 100%, and the decrease in immune serum response by anti-gD2 antibody application was calculated as the competitive rate.

HSV-2 MS strain = experiment: Mouse infection-prevention test of modified gD (genital herpes infection model); assay type: in vivo, BALB/c mice; parameters: key to Determination (vs gD1-315) / Determination# (vs gD1-315): ++: minimum effective dose based on the Significant difference test in three-fold common ratio relative to gD1-315(WT) of two or more doses stronger; +: those of one dose stronger; ±: those of an equivalent value
Method in brief: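 Female BALB/c mice immunized s.c. three times at 2-week intervals with gD antigen at 0.1–0.003 μg/mouse/time plus MPLA (10 μg) and CpG (1 μg), n=10. Depo-Provera 2 mg s.c. given, then 5×10^5 PFU HSV-2 MS intravaginally 2 weeks post-boost; survival over 21 days, Kaplan-Meier vs saline, scored relative to wild-type gD1-315.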

splenocytes = experiment: Cellular immune (T cell immune)-inducing activity, IFN-γ production response of splenocytes; assay type: in vivo, BALB/c mice; conditions: 3 μg/mouse; compared to the wild-type gD immune group; FIG. 25
Procedure: Furthermore, for cellular immune (T cell immune) inducing activity, the IFN-γ production response activity (recall activity) of splenocytes (a pool sample of four cases) prepared from mice immunized with gD1-315v3-55 as an example of a modified gD antigen and wild-type gD (gD1-315) (3 μg/mouse of the administration group) was compared and analyzed. Specifically, 5 weeks old BALB/c mice were immunized with 3 μg of antigen subcutaneously in back at 2-week intervals for a total of 3 times, and splenocytes were collected 2 weeks after the final immunization. Anti-IFN-γ was immobilized in a 96-well plate with a PVDF membrane on the bottom surface and cells were seeded at 1×10^6 cells/100 μL/well. Immune antigens were added as stimulants at 10 mM and the cells were cultured at 37° C. and 5% CO2 for 20 hours. The supernatant was removed and the anti-mouse IFNγ-HRP antibody was reacted, then HRP was stained with AEC reagents to count IFNγ-producing cell numbers with an Image Analyzer (CTL).

[2] = Experiment 1, 0.003 μg/head/time
[3] = Experiment 1, 0.01 μg/head/time
[4] = Experiment 1, 0.03 μg/head/time
[5] = Experiment 2, 0.003 μg/head/time
[6] = Experiment 2, 0.01 μg/head/time
[7] = Experiment 2, 0.03 μg/head/time

Sequence of gD-HVEM interactions (P03172 26-330 R52Q): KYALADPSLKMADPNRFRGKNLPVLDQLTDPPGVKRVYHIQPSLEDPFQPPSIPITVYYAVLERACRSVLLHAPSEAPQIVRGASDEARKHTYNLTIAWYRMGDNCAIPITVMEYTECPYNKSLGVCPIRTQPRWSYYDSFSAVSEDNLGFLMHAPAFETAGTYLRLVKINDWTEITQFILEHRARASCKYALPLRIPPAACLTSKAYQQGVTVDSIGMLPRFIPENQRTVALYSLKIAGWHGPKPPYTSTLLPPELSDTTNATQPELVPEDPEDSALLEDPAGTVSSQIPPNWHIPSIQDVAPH

B1: gD1-315v5-55: gD1-315 with glycochains at SC-A, SC-F, linked to T cell epitope peptide DP5 (protein)
chain: KYALADPSLKMADPNRFRGKNLPVLDQLTDPPGVKRVYHIQPSLEDPFQNASIPITVYYAVLERACRSVLLHAPSEAPQIVRGASDEARKHTYNLTIAWYRMGDNCAIPITVMEYTECPYNKSLGVCPIRTQPRWSYYDSFSAVSEDNLGFLMHAPAFETAGTYLRLVKINDWTEITQFILEHRANASCKYALPLRIPPAACLTSKAYQQGVTVDSIGMLPRFIPENQRTVALYSLKIAGWHGPKPPYTSTLLPPELSDTTNATQPELVPEDPEDSALLEDPAGTVSSQIPPNWHIPSIQDVAPHHAPAAPSNPGGPGPGIAFWVRRRAQMAPKPLRIAFWVRRRAQMAPKPLRHHHHHH
modifications: left off: small tags and cut ends
Inhibition of gD-HVEM interaction by immune serum IgG (gD-HVEM interactions): strong inhibitory effects
Reactivity with HVEM (HVEM): highest reactivity
Relative reactivity with antibody No. 82 (gD1-315 wild-type set to 1) ([1]; FIG. 13): approximately 12 fold
Reactivity with anti-gD2 antibody 1 [1]: + ((+): 70% or more)
Reactivity with anti-gD2 antibody 5 [1]: − ((−): less than 30%)
Reactivity with anti-gD2 antibody 13 [1]: + ((+): 70% or more)
Reactivity with anti-gD2 antibody 72 [1]: − ((−): less than 30%)
Reactivity with anti-gD2 antibody 75 [1]: − ((−): less than 30%)
Reactivity with anti-gD2 antibody 78 [1]: − ((−): less than 30%)
Reactivity with anti-gD2 antibody 82 [1]: + ((+): 70% or more)
Percentage of antibodies in immune serum competing with antibody No. 1 (gD1-315): little change
Percentage of antibodies in immune serum competing with antibody No. 72 (gD1-315): tend to decrease
Percentage of antibodies in immune serum competing with antibody No. 82 (gD1-315): increased percentage

B2: gD1-315v3-55: gD1-315 with glycochain at SC-F, linked to two DP5 T cell epitope peptides (protein)
chain: KYALADPSLKMADPNRFRGKNLPVLDQLTDPPGVKRVYHIQPSLEDPFQNASIPITVYYAVLERACRSVLLHAPSEAPQIVRGASDEARKHTYNLTIAWYRMGDNCAIPITVMEYTECPYNKSLGVCPIRTQPRWSYYDSFSAVSEDNLGFLMHAPAFETAGTYLRLVKINDWTEITQFILEHRARASCKYALPLRIPPAACLTSKAYQQGVTVDSIGMLPRFIPENQRTVALYSLKIAGWHGPKPPYTSTLLPPELSDTTNATQPELVPEDPEDSALLEDPAGTVSSQIPPNWHIPSIQDVAPHHAPAAPSNPGGPGPGIAFWVRRRAQMAPKPLRIAFWVRRRAQMAPKPLRHHHHHH
modifications: left off: small tags and cut ends
Reactivity with anti-gD2 antibody 1 [1]: + ((+): 70% or more)
Reactivity with anti-gD2 antibody 5 [1]: − ((−): less than 30%)
Reactivity with anti-gD2 antibody 13 [1]: + ((+): 70% or more)
Reactivity with anti-gD2 antibody 72 [1]: − ((−): less than 30%)
Reactivity with anti-gD2 antibody 75 [1]: − ((−): less than 30%)
Reactivity with anti-gD2 antibody 78 [1]: − ((−): less than 30%)
Reactivity with anti-gD2 antibody 82 [1]: + ((+): 70% or more)
Mean survival time (HSV-2 MS strain; [2]): >16 days
Significant difference test (vs saline) (HSV-2 MS strain; [2]): *** (*** p < 0.001)
Mean survival time (HSV-2 MS strain; [3]): 15 days
Significant difference test (vs saline) (HSV-2 MS strain; [3]): *** (*** p < 0.001)
Mean survival time (HSV-2 MS strain; [4]): >21 days
Significant difference test (vs saline) (HSV-2 MS strain; [4]): *** (*** p < 0.001)
Mean survival time (HSV-2 MS strain; Experiment 1, 0.1 μg/head/time): >21 days
Significant difference test (vs saline) (HSV-2 MS strain; Experiment 1, 0.1 μg/head/time): *** (*** p < 0.001)
Determination (vs gD1-315) (HSV-2 MS strain; Experiment 1, minimum effective dose relative to gD1-315(WT)): ++
Mean survival time (HSV-2 MS strain; [5]): 7 days
Significant difference test (vs saline) (HSV-2 MS strain; [5]): N.S.
Mean survival time (HSV-2 MS strain; [6]): >16 days
Significant difference test (vs saline) (HSV-2 MS strain; [6]): N.S.
Mean survival time (HSV-2 MS strain; [7]): >22 days
Significant difference test (vs saline) (HSV-2 MS strain; [7]): *** (*** p < 0.001)
Mean survival time (HSV-2 MS strain; Experiment 2, 0.1 μg/head/time): >22 days
Significant difference test (vs saline) (HSV-2 MS strain; Experiment 2, 0.1 μg/head/time): *** (*** p < 0.001)
Determination# (vs gD1-315) (HSV-2 MS strain; Experiment 2, minimum effective dose relative to gD1-315(WT)): +
IFN-γ production response activity (recall activity) of splenocytes (splenocytes): higher response activity
Percentage of antibodies in immune serum competing with antibody No. 1 (gD1-315): little change
Percentage of antibodies in immune serum competing with antibody No. 72 (gD1-315): tend to decrease
Percentage of antibodies in immune serum competing with antibody No. 82 (gD1-315): increased percentage
